Data: PMC10963267 (2023)

Key:
[1] = target: T1, HER2 extracellular domain (Homo sapiens, UniProt P04626); test: Octet
[2] = target: T1, HER2 extracellular domain; test: flow
[3] = target: human epidermal growth factor receptor 2 (HER2), biotinylated (human, UniProt P04626 23-652, biotin); test: BLI

Row | Binder | Kd [1] [nM] | apparent Kd (screen) [2] [nM] | Kd [3] [nM]
1 | HDVAYCDDPTCAYWPEYFQH [HER20014] | 0.996 | 65.9 | 
2 | HDVGWCTSSNCAKWPEYFQH [HER20006] | 0.85 | 151 | 
3 | HDVAYCDTPTCAKWPEYFQH [HER20005] | 1.86 |  | 
4 | HDVGYCSSHRCETWPEYFQH [HER20012] | 0.591 | 74.2 | 
5 | HDVAYCSSSRCLDWPEYFQH [HER20010] | 1.06 | 17.7 | 
6 | HDVAYCDSDRCAKWPEYFQH [HER20008] | 2.68 | 44.5 | 
7 | HDVGQCDSSNCAKWPEYFQH [HER20004] | 3.44 |  | 
8 | HDVGYCMSSNCAKWPEYFQH [HER20007] | 2.08 | 41.1 | 
9 | HDVGLCSSSNCAKWPEYFQH [HER20011] |  | 40.6 | 
10 | HDVGYCSSSNCAKWPEYFQH [HER20002] | 1.65 | 19.4 | 
11 | HDVAYCSSSRCLTWPEYFQH [HER20003] | 2.88 |  | 
12 | HDVAYCSSSRCLEWPEYFQH [HER20009] | 1.04 | 11.2 | 
13 | HDVGYCSTSRCLTWPEYFQH [HER20013] |  | 10 | 

Other lines, results leading:

Row | Kd [1] [nM] | apparent Kd (screen) [2] [nM] | Kd [3] [nM] | Binder
14 |  | 8.78 |  | HDVGYCDTPTCNKWPEYFQH [HER20025]
15 |  |  | 1.06 | anti-HER2 Fab HER20010 (Fab, V domains shown) VH: QVQLVQSGAEVKKPGESLKISCKGSGYSFTSYWIAWVRQMPGKGLEYMGLIYPGDSDTKYSPSFQGQVTISVDKSVSTAYLQWSSLKPSDSAVYFCARHDVAYCSSSRCLDWPEYFQHWGQGTLVTVSS VL: QSVLTQPPSVSAAPGQKVTISCSGSSSNIGNNYVSWYQQLPGTAPKLLIYGHTNRPAGVPDRFSGSKSGTSASLAISGFRSEDEADYYCASWDYTLSGWVFGGGTKLTVL
16 |  |  | 2.68 | anti-HER2 Fab HER20008 (Fab, V domains shown) VH: QVQLVQSGAEVKKPGESLKISCKGSGYSFTSYWIAWVRQMPGKGLEYMGLIYPGDSDTKYSPSFQGQVTISVDKSVSTAYLQWSSLKPSDSAVYFCARHDVAYCDSDRCAKWPEYFQHWGQGTLVTVSS VL: QSVLTQPPSVSAAPGQKVTISCSGSSSNIGNNYVSWYQQLPGTAPKLLIYGHTNRPAGVPDRFSGSKSGTSASLAISGFRSEDEADYYCASWDYTLSGWVFGGGTKLTVL
17 |  |  | 0.2 | anti-HER2 Fab HER20015 (Fab, V domains shown) VH: QVQLVQSGAEVKKPGESLKISCKGSGYSFTSYWIAWVRQMPGKGLEYMGLIYPGDSDTKYSPSFQGQVTISVDKSVSTAYLQWSSLKPSDSAVYFCARHDVGYCDTPTCDKWPEYFQHWGQGTLVTVSS VL: QSVLTQPPSVSAAPGQKVTISCSGSSSNIGNNYVSWYQQLPGTAPKLLIYGHTNRPAGVPDRFSGSKSGTSASLAISGFRSEDEADYYCASWDYTLSGWVFGGGTKLTVL
18 |  |  | 2.08 | anti-HER2 Fab HER20007 (Fab, V domains shown) VH: QVQLVQSGAEVKKPGESLKISCKGSGYSFTSYWIAWVRQMPGKGLEYMGLIYPGDSDTKYSPSFQGQVTISVDKSVSTAYLQWSSLKPSDSAVYFCARHDVGYCMSSNCAKWPEYFQHWGQGTLVTVSS VL: QSVLTQPPSVSAAPGQKVTISCSGSSSNIGNNYVSWYQQLPGTAPKLLIYGHTNRPAGVPDRFSGSKSGTSASLAISGFRSEDEADYYCASWDYTLSGWVFGGGTKLTVL
19 |  |  | 1.04 | anti-HER2 Fab HER20009 (Fab, V domains shown) VH: QVQLVQSGAEVKKPGESLKISCKGSGYSFTSYWIAWVRQMPGKGLEYMGLIYPGDSDTKYSPSFQGQVTISVDKSVSTAYLQWSSLKPSDSAVYFCARHDVAYCSSSRCLEWPEYFQHWGQGTLVTVSS VL: QSVLTQPPSVSAAPGQKVTISCSGSSSNIGNNYVSWYQQLPGTAPKLLIYGHTNRPAGVPDRFSGSKSGTSASLAISGFRSEDEADYYCASWDYTLSGWVFGGGTKLTVL
20 |  |  | 5.25 | anti-HER2 Fab HER20011 (Fab, V domains shown) VH: QVQLVQSGAEVKKPGESLKISCKGSGYSFTSYWIAWVRQMPGKGLEYMGLIYPGDSDTKYSPSFQGQVTISVDKSVSTAYLQWSSLKPSDSAVYFCARHDVGLCSSSNCAKWPEYFQHWGQGTLVTVSS VL: QSVLTQPPSVSAAPGQKVTISCSGSSSNIGNNYVSWYQQLPGTAPKLLIYGHTNRPAGVPDRFSGSKSGTSASLAISGFRSEDEADYYCASWDYTLSGWVFGGGTKLTVL
21 | 0.465 | 4.78 |  | HDVGYCDSSMCQMWPEYFQH [HER20026]
22 | 0.294 | 14.3 |  | HDVGYCDTPTCDKWPEYFTH [HER20020]
23 | 2.26 | 24.4 |  | HDVGYCSESACQQWPEYFQH [HER20018]
24 | 0.2 | 31 |  | HDVGYCDTPTCDKWPEYFQH [HER20015]
25 | 0.578 | 31.6 |  | HDVGYCDTESCEKWPEYFQH [HER20023]
26 | 1.46 | 1350 |  | HDVGQCDSSNCAAWPEYFQH [HER20017]
27 | 0.79 | 19.6 |  | HDVGQCDSSNCATWPEYFQH [HER20019]
28 | 0.183 | 14.8 |  | HDVGYCDTPTCATWPEQFDH [HER20022]
29 | 1.41 | 106 |  | HDVGPCDTSTCAKWPEYFQH [HER20016]
30 |  | 17.9 |  | HDVGQCDSSNCETWPEYFQH [HER20024]
31 | 0.215 | 17.7 |  | HDTGYCDTPTCAKWPEYFQH [HER20021]
